B1: Signal transducing adapter molecule 1 (Homo sapiens), Q92783 (parent)
chain: MPLFATNPFDQDVEKATSEMNTAEDWGLILDICDKVGQSRTGPKDCLRSIMRRVNHKDPHVAMQALTLLGACVSNCGKIFHLEVCSRDFASEVSNVLNKGHPKVCEKLKALMVEWTDEFKNDPQLSLISAMIKNLKEQGVTFPAIGSQAAEQAKASPALVAKDPGTVANKKEEEDLAKAIELSLKEQRQQSTTLSTLYPSTSSLLTNHQHEGRKVRAIYDFEAAEDNELTFKAGEIITVLDDSDPNWWKGETHQGIGLFPSNFVTADLTAEPEMIKTEKKTVQFSDDVQVETIEPEPEPAFIDEDKMDQLLQMLQSTDPSDDQPDLPELLHLEAMCHQMGPLIDEKLEDIDRKHSELSELNVKVMEALSLYTKLMNEDPMYSMYAKLQNQPYYMQSSGVSGSQVYAGPPPSGAYLVAGNAQMSHLQSYSLPPEQLSSLSQAVVPPSANPALPSQQTQAAYPNTMVSSVQGNTYPSQAPVYSPPPAATAAAATADVTLYQNAGPNMPQVPNYNLTSSTLPQPGGSQQPPQPQQPYSQKALL
B2: Atos homolog protein B (Homo sapiens), Q7L5A3 (parent)
chain: MRHVQAEPSPSSEPEAGPSQPPVRQGALQGGLLMGYSPAGGATSPGVYQVSIFSPPAGTSEPHRALKRQAPSTEGPRELKRGPGLGAREGLPPEEPSTVGLLGPEGPGLGLGVASQHFSHRGLCVVEQRSSVTSSWTSGAWSPPCPPSNASCNTLHTRDWASPDPGGQGSLGESPGPAPPGQLHTLDTDLHSLAQIGGKSPVAGVGNGGSLWPRESPGTANGHSPEHTPPGPGPPGPCPTKRRLLPAGEAPDVSSEEEGPAPRRRRGSLGHPTAANSSDAKATPFWSHLLPGPKEPVLDPTDCGPMGRRLKGARRLKLSPLRSLRKGPGLLSPPSASPVPTPAVSRTLLGNFEESLLRGRFAPSGHIEGFTAEIGASGSYCPQHVTLPVTVTFFDVSEQNAPAPFLGIVDLNPLGRKGYSVPKVGTVQVTLFNPNQTVVKMFLVTFDFSDMPAAHMTFLRHRLFLVPVGEEGNANPTHRLLCYLLHLRFRSSRSGRLSLHGDIRLLFSRRSLELDTGLPYELQAVTEAPHNPRYSPLP
B3: Palmitoyltransferase ZDHHC22 (Homo sapiens), Q8N966 (parent)
chain: MLALRLLNVVAPAYFLCISLVTFVLQLFLFLPSMREDPAAARLFSPALLHGALFLFLSANALGNYVLVIQNSPDDLGACQGASARKTPCPSPSTHFCRVCARVTLRHDHHCFFTGNCIGSRNMRNFVLFCLYTSLACLYSMVAGVAYISAVLSISFAHPLAFLTLLPTSISQFFSGAVLGSEMFVILMLYLWFAIGLACAGFCCHQLLLILRGQTRHQVRKGVAVRARPWRKNLQEVFGKRWLLGLLVPMFNVGSESSKQQDK
partner: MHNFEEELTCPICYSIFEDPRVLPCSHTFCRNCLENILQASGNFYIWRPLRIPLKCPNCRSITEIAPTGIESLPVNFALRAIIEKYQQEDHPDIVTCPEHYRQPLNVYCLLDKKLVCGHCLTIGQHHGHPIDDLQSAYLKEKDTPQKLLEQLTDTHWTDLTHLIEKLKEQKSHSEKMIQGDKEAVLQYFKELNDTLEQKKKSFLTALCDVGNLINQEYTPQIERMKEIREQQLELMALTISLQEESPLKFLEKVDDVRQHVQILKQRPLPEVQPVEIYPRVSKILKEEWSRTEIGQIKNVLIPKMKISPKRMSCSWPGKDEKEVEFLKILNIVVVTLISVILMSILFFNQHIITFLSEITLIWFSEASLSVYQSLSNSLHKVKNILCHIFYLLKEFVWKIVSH

Variants of: B1
Settings: with hgs_human HGS

Variant	effect of a mutation on the interaction
H331L	with no effect

Variants of: B2
Settings: with mdfi_human MDFI

Variant	effect of a mutation on the interaction
C381Y	with no effect

Variants of: B2
Settings: with ikzf1_human IKZF1, Q13422
Chain of ikzf1_human IKZF1, Q13422 (Q13422 whole entry): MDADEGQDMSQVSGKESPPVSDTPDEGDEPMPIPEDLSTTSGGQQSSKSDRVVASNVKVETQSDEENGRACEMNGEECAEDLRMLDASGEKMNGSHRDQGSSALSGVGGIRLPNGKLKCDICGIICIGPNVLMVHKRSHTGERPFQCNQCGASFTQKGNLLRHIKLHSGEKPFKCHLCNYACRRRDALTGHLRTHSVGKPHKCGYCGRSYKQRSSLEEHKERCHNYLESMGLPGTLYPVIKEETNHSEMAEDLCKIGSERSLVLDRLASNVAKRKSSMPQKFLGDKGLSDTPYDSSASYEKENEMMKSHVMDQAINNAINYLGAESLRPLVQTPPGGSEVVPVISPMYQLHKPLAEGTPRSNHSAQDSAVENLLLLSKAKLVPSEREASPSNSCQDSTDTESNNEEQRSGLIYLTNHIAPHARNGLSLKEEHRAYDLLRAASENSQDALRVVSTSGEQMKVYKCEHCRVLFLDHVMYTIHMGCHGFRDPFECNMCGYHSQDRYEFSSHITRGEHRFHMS

Variant	effect of a mutation on the interaction
C381Y	disrupting interaction strength

Variants of: B2
Settings: with dnja3_human DNAJA3, Q96EY1
Chain of dnja3_human DNAJA3, Q96EY1 (Q96EY1 whole entry): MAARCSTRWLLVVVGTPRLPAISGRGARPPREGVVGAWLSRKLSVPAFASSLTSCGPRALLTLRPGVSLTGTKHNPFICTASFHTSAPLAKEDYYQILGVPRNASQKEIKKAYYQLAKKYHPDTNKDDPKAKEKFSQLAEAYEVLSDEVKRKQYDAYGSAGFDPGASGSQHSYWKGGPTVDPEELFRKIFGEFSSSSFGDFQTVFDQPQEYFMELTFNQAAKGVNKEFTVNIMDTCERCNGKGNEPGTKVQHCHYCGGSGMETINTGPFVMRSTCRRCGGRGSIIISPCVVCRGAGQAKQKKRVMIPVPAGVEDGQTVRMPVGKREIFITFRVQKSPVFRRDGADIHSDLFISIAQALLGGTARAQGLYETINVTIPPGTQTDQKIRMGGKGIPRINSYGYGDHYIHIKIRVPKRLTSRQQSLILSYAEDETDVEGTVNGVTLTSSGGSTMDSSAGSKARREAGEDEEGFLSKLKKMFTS

Variant	effect of a mutation on the interaction
C381Y	disrupting interaction strength

Variants of: B3
Settings: with tri59_human TRIM59, Q8IWR1

Variant	effect of a mutation on the interaction
L209F	with no effect
